According to article PMC12796744:

Tests used:
[1] = target: GST-HMGN2 (UniProt P05204); assay: in vitro multiplex nucleosome-bead conjugate binding assay; details: 0.625 nM GST-HMGN2, three technical replicates, parent: est. 54000, read off a plot
[2] = target: GST-HMGN2ΔC; assay: as above; details: for response (RFU (background subtracted)): 0.625 nM GST-HMGN2ΔC, three technical replicates, parent: est. 100000, read off a plot; for other: HMGN2ΔC / HMGN2 relative to canonical nuc.: parent: est. 1.0, read off a plot
[3] = target: GST-HMGN1ΔC; assay: as above; details: for response (RFU (background subtracted)): 0.625 nM GST-HMGN1ΔC, three technical replicates, parent: est. 110000, read off a plot; for other: HMGN1ΔC / HMGN1 relative to canonical nuc.: parent: est. 1.0, read off a plot
[4] = target: GST-HMGN1 (UniProt P05114); assay: as above; details: 0.625 nM GST-HMGN1, three technical replicates, parent: est. 37000, read off a plot
Chain of UniProt P05114 (P05114 whole entry, looked up): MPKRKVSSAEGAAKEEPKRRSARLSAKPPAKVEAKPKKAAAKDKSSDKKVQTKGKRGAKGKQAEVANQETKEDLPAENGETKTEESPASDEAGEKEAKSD

[5] = target: GST-HMGN2 (UniProt P05204); assay: in vitro multiplex nucleosome-bead conjugate binding assay (titration); details: GST-HMGN2 at 5 on the x axis (axis uM; legend nM); raw RFU before normalization; parent: est. 370000; read off a plot
[6] = target: GST-HMGN1 (UniProt P05114); assay: as above; details: GST-HMGN1 at 5 on the x axis (axis uM; legend nM); raw RFU before normalization; parent: est. 160000; read off a plot

response (RFU (background subtracted)) [1]	response (RFU (background subtracted)) [2]	other: HMGN2ΔC / HMGN2 relative to canonical nuc. [2]	response (RFU (background subtracted)) [3]	other: HMGN1ΔC / HMGN1 relative to canonical nuc. [3]	response (RFU (background subtracted)) [4]	response [5]	response [6]	Substance
25000	38000	1.2	66000	1.1	22000	110000 RFU	74000 RFU	canonical unmodified nucleosome (from UniProt P04908;O60814;P68431;P62805) H2A:E92K
16000	52000	2.1	66000	1.7	11000	92000 RFU	58000 RFU	canonical unmodified nucleosome (from UniProt P04908;O60814;P68431;P62805) H2A:E61A
